Experimental data published in paper PMC4571291 (2015).

B1: TL2_(ABS2) (domain or fragment)
chain: VIKPTQYKPVPDEEPNSTDVEETLERIKNNDPKLEEVNLNNIRNIPIPTLKAYAEALKENSYVKKFSLANTHADDSAAMAIAEMLKVNEHITNVNVESNFITGKGILAIMRALQHNTVLTELRFHNQRHIMGSQVEMEIVKLLKENTTLLRLGYHFELPGPRMSMTSILTRNMDKQRQKRLQEQKQQE
B2: Tmod1_(ABS1) (domain or fragment)
chain: MSYRRELEKYRDLDEDEILGALTEEELRTLENELDELDPDNALLPAGLRQKDQTTKAPTGPFKREELLDHLEKQAKEFKDREDLVPYTGEKRGKVWVPKQKPLDPVLESVTLEPELEEALANASDAELCDIAAILGMHTLMSNQQYYQALSSSSIMNKEGLNSVIKPTQYKPVPDEEPNSTDVEETLERIKNNDPKLEEVNLNNIRNIPIPTLKAYAEALKENSYVKKFSIVGTRSNDPVAYALAEMLKENKVLKTLNVESNFISGAGILRLVEALPYNTSLVEMKIDNQSQPLGNKVEMEIVSMLEKNATLLKFGYHFTQQGPRLRASNAMMNNNDLVRKRRLADLTGPIIPKCRSGV
B3: Lmod2_(ABS2) (domain or fragment)
chain: NGRNTESPAAIHPCGNPTVIEDALDKIKSNDPDTTEVNLNNIENITTQTLTRFAEALKDNTVVKTFSLANTHADDSAAMAIAEMLKVNEHITNVNVESNFITGKGILAIMRALQHNTVLTELRFHNQRHIMGSQVEMEIVKLLKENTTLLRLGYHFELPGPRMSMTSILTRNMDKQRQKRLQEQKQQE
B4: TL1_(ABS2) (domain or fragment)
chain: VIKPTQYKPVPDEEPNSTDVEETLERIKNNDPKLEEVNLNNIRNIPIPTLKAYAEALKENSYVKKFALANTRADDHVAFAIAIMLKANKTITSLNLDSNHITGKGILAIFRALLQNNTLTELRFHNQRHICGGKTEMEIAKLLKENTTLLKLGYHFELAGPRMTVTNLLSRNMDKQRQKRLQEQRQAQ

Tests used:
actin [1] = target: T1, actin (UniProt P68135 1-377); assay: ITC; first site (KD1)
actin [2] = target: T1, actin; assay: ITC; second site (KD2)
actin [3] = target: T1, actin; assay: ITC

Row | Binder | Kd (actin [1]) [µM] | Kd (actin [2]) [µM] | Kd (actin [3]) [µM]
1 | B1 | 0.154 | 0.6 | 
2 | B2 |  |  | 15
3 | B3 |  | 1.7 | 
4 | B4 |  | 0.13 | 
